Data reported in the DeepSol protein solubility set.

Assay: soluble on expression in E. coli; label from the status in PepcDB or PDB records

| Sequence | soluble on expression in E. coli |
| --- | --- |
| MLEDLKRQVLEANLALPKHNLVTLTWGNVSAVDRERGVFVIKPSGVDYSIMTADDMVVVSIETGEVVEGAKKPSSDTPTHRLLYQAFPSIGGIVHTHSRHATIWAQAGQSIPATGTTHADYFYGTIPCTRKMTDAEINGEYEWETGNVIVETFEKQGIDAAQMPGVLVHSHGPFAWGKNAEDAVHNAIVLEEVAYMGIFCRQLAPQLPDMQQTLLNKHYLRKHGAKAYYGQ | soluble |
| MLERTQVFVDTSYLLASFYNSWETGARAQLEIDLPEVVGVLGRMIEQQLKQPVQRQMWYDGIPDSGPHRYQRALRTCDGVQLRAGQLIEWGERRTQKAVDTRLVADLVLAGVRGQCSDIVLVSGDADMIPGVQEAANAGLRVHLYGFGWDSMSSQLRHCCDTTTILDPRED | not soluble |
| MLESMTGYGSAERSEKGMKVLVELRSVNNRFAEIGVKLPRQLLSWELEVRELIRASFQRGKISAFVQLQLEEAEALPVTVNPSKVRGYKALLETVRREAEIEAPVTLDHVLRFSEIFEPDHTILEHPDEIWPIAQSALIEAIGNLKEMRRKEGEELAIDFLSRIDEIERTLKEIKEIAAGNLETIRKRLASKISAIAGCDVEYSKDRLEMEIVMAAERLDITEECIRFSSHNKFFIEELNNSSSGSGRKLNFLLQEQLREANTIASKSQNADISQKVVHIKEELEKVREQLQNIE | soluble |
| MLFDLGYVDLQDRSNAEILTHLITKKAILLLGDKQNPADLLAIQDEVQERYLVNFSLFQSMPDFWGLEQNFPIMPLDRLDEEPTRSASIWDITCDSDGEISYSKDKPLFLHDVDVEKENYFLGFFLVGAYQEVLGMKHNLFTHPTEAIISINEKGYEVEGIIEAQSILDTLEDLDYDIHAILEHHHHHH | not soluble |
| MLFMVKFRWETEFKETDIGKIPKDWDVKKIKDIGEVAGGSTPSTKIKEYWGGDIPWITPKDLANYEYIYISRGERNITEKAVKECSLRIFPKGTILLTSRAPIGYVAIAKNPLTTNQGFRNIIPKDGVVSEYLYYLFKTKTMSEYLKDISGGSTFPELKGSTLKEVEIPYPSPEEQQKIATVLSYFDDLIENKKKQNEILEKIALELFKNWFIDFEPFKNEEFVYNDELDKEIPKGWEVKRLGDILKVESGSNAPQREIYFENAKIPFVRVKHLVKGVCIESSDFINELALKDYKMKLYNEKSIIFQKSGESLKEARVNIVPFKFTAVNHLAVIDSSMLNEKHYFIYCLLRFLLKEIVYSVKGTTLPYLKISDIENKYIIIPPQPILQKFHSLVQPLFEKIINNQKQIMVLKKIRDALLPKLVFGELRVEEL | soluble |
| MLFWLMASLWPMKAGVVYADQTEGAITFVSDEKIEGWATAPGIGNGQGNSIRYFMIRIQPKEQSGTAVSYRAEAVEAPADRNGEKKYTFSLDMRGKWPSAPGTMVTYQITVDAYRVLGNGKEDVYFSFPQTPYQYTRQTEASTAKLDFSLSFSQPEYAKPPNGDAQGRLDVTLVPQGAVSGIIRPPIDVVFVMDVSGSMTAMKLQSAKSALQAAVNYFKSNYNQNDRFALIPFSDGVREASVVPFGKYSNVASQLDAILNTGNSLTAGGGTNYSAALSLAKSYFTDPTRKKYIIFLTDGMPTVLNAVDTITYREVKQNFWGGYSYTGNRVTDSLSITYELYSDGRTAGIRFTDNKGYSRRFYSDGQDYVNGWRVSWDNGYSFTYSSIEGKIRADATAVAKTLGMNNITLYSIGFGDNDEVDMDYLRSLSATAGGEARQGTTQNLTALFQQFSQLATTPAITGTIRIPLSSFGGNVAVAENGQVWLDENKQNAYISFSIPYQVGQGTPAPVTIPIPVSFKAKGTYTFTAELTYRDVYGQLQPAVTKTVTVTVKDEAPPSFTGTVKLQGLTNDVTGLIKRGATDGDDNRFRATYSLSLVGYVGNATGTISNVSIVQELPDGISVVPDGKVTTYVENGKRYAKWSFTNQMFDYSQLNKLTLSAQWVMQADFAMNSVQLPPASVTFTDSRYGAKTSTLVPPAERIGMTVRLDDFPNFYYEGNGKGTITKHKFSALSDDIVGQANPNSYGLLPLPVKALEYDPNDDGVLLVTYSNGQTGIGVH | not soluble |
| MLGIYVLSVDRQSPFAQALKVGDTVTEVNGHHFNSMTGYQRYIQRQKVGQRATITYQRNGKTHHVTAKLMRLPTKKAGIGITLEHHHHHH | not soluble |
| MLIANEVYHALNLEEVWFLPNQIPPHKQGRDITSVESRLQMLELATEAEEHFSICLEELSRKGPSYTYDTMLQLTKKYPDVQFHFIIGGDMVEYLPKWYNIEALLDLVTFVGVARPGYKLRTPYPITTVEIPEFAVSSSLLRERYKEKKTCKYLLPEKVQVYIERNGLYES | not soluble |
| MLIFGFIGLFFLNIFSLHAQGIVTNKDAQEEFKWALNSYNNGIYDDALLSFKKILSFDPNNLDYHFWTGNVYYRLGYVEEALMEWRNLKDQGYKVPYLRHLISTIEQRRGIFSNYELNFKKLVKVASLDNSIYKRPHGYQITSLRADKYGGYYAANFVGNEILYFDVNNNVNALVKDGFSYLKSPYDVIEANNLLYVTLYSSDEIGVYDKVLGVKRKSIGNKGTKDGELLAPQYMAIDKRNYIYVSEWGNKRVSKFGLEGDFILHFGSRTSGYKGLLGPTGVTYLNENIYVADSLRNTIEVFDTSGNHLYSVFTSIEGIEGLSSDFVGNNVIVSSKDGVYKYSIAKKTITKILKADKMNSKISSSILDANNQMIVSDFNNAKVSVYKSDASLYDSLNVDVRRIIRLGGPKIYVELNVSSKSGLPVVGLKSENFSISNENYYIVNPKVAYNVNASKDINIAVVFDKSSYMKKYDTDQIVGLNALMELSKNKNFSFINATSVPIIDNIESLTNSIRNTSSLGPYSTDAVKTDVSLKLAGSGLMSKSSRRAVVYFSGGILNRKAFEKYSLDTIVSYYKNNDIRFYLILFGNDPINSKLQYLVNETGGAVIPFSSYEGVSKVYDLILEQKTGTYLLEYYYPGPQEPNKYFNLSVEANINQQTGRGEFAYFINLEHHHHHH | not soluble |
| MLIRSAKPEDAEFIGSIRVAAWQAAYRGFMPDTYLASLDPGANLDELRAALRAENPPFTLRIAETEGQPIAFSILGKPRYNADQSIVELWALNVHPTHWRKGAGQQLVRQVLLDAKEQKFVSVELWCIQGNLAAQRLYEICGFVPNSQVRTTSSLTGYPLHELAYTYAL | not soluble |
| MLIRYRKNYEKIAMGLLSFMPTEKDLKRLQQTMKQYETNNDWQLFLWKEGDDIVGIIGVLLRAPDVVEIQHISVNPSHRHQGIGKQMVKALKEVYPGRRLCANEWTASFFDKCHACNE | not soluble |
| MLISERFGIKGRADAVRRGMPVELKTGKNLKRSPRFQDKVQAACYGLLLADDIADPPDTGTLLYTKNSALDRSEESGDLSPAKEFSIGPGFLKYVLRVRNEIAAAEYDMSVPTGFEADANCDYCFEQDTCMVVSGRLDQESKAGQLGEPLPEPERAYFERLYRAIEEERREVHAEYRKLWEQSAAERADDDRALVDLDPLGREPLDGGRWALSARRTSDAVSKIREGDRVLASDGHPTQGTAELATVRHLDDEIVVVADEPFELRRIDVYPSELGVDRQLEHHHHHH | soluble |
| MLITSYNPSELGDTLITILRPDTATQTIETHANVTRISDADSGETLGYNFFDVSKTLGDLDANGQVHLTAEQVEQLNNLLKTNDFEPELVLDTDPKFVVGYVESAEAHPKSDHLQITKTNVGLEQPLQIVSGSPNMQANILVVVAKVGAMMPSGLIIWPGELRGVESDGMIVSGRELRLPNAPQRPGALILPADYQPVGAAFDFKRAQTLFTALEHHHHHH | not soluble |
| MLKDQANQLEFPRDFLGISLADQPNKYYFIIRTQRIVLEADSSIQLIMEKLQSYKSKVALYFDGFQYQLGDFRLRVGKVVPTHSENVRGIVMEVEYLPISSMEKAQKVMEEFLEIWNEALAKRSLPGKFVNIDLNFGEFGLGDIYTPQHTAVRYALVMAHMIATVQAVRG | soluble |
| MLKEAIYHRPKDNYAYAYDEKTIHIRIRTKRDDVQSTTLIYGDPYEWKDGKWISSSTPMKKTGSTALFDYWFISIEPKFKRLRYGFELKNDTDTLIYAERGFFSTTPNDDVGNFFCFPFIHANDVFKAPSWIKDTVWYQIFPERFANGDHTLNPENTLPWGSAEPTPTNFFGGDFAGIIQNLDYLVKLGISGIYFTPIFKAHSNHKYDTIDYMEIDPQFGTKETFKELVQACHTHGIKVMLDAVFNHSGYFFDKFQDVLQNGEQSAYKEWFHIHEFPIRTEPLPNYDTFAFTPYMPKLNTAHPDVKEYLLEVGRYWVREFNIDGWRLDVANEVDHNFWREFRSEIKALNSEVYILGEIWHDALPWLQGDQFDAVMSYPVTNALLSYFANDSIKANEFMKQITESLHSYSMNVNEAAFHLLDSHDTPRILTTCNGDKNKLKLLYVFHLSFIGSPCIYYGDEIGMDGGMDPDCRKCMVWDTEEQDHTLFTHVQTLISLRKQYKAFGGHGTFQFIEANDEYNYISYTKTYEDETIFFVLNPTNSDITASLPLHVTGKKIINIYTNEEFSAEASVLQVTLPPYGFSILKW | not soluble |
| MLKFRASFLSLALMLAVPFAPQAVAKTAATTAASQPEIASGSAMIVDLNTNKVIYSNHPDLVRPIASITKLMTAMVVLDARLPLDEILKVDISQTPEMKGVYSRVRLNSEISRKNMLLLALMSSENRAAASLAHYYPGGYNAFIKAMNAKAKALGMTHTRFVEPTGLSIHNVSTARDLTKLLIATKQYPLIGQLSTTREDMATFSHPAYTLPFRNTNHLVYRDNWNIQLTKTGFTNAAGHCLVMRTVINNKPVALVVMDAFGKYTHFADASRLRTWIETGKVMPVPAAALSYKKQKAAQMAAASASAGAQTAQND | not soluble |
| MLKHIISAYNFSRDELEDIFALTDKYSKNLNDTRKILSGKTISIAFFEPSTRTYLSFQKAIINLGGDVIGFSGEESTSVAKGENLADTIRMLNNYSDGIVMRHKYDGASRFASEISDIPVINAGDGKHEHPTQAVIDIYTINKHFNTIDGLVFALLGDLKYARTVNSLLRILTRFRPKLVYLISPQLLRARKEILDELNYPVKEVENPFEVINEVDVLYVTRIQKERFVDEMEYEKIKGSYIVSLDLANKMKKDSIILHPLPRVNEIDRKVDKTTKAKYFEQASYGVPVRMSILTKIYGE | soluble |
| MLKIDAIAFFGSKTKLANVAGVRLASVAAWGELVPEGRAMRLQEASGGELQYDPKVYDEYRKAKRAGRLNNENHH | not soluble |
| MLKKLSPIFSNITGVVRYQDLAYVASVSDEIQEQNIAHSYVTEWDCGTWCVAGEDDDMLPWEIVSATVVHEPVEQALFLGARGQVFCMGSGDIHEEQLPDGDDAIGGRGNMRGVACIDGVAYACGMDRQVYRRFDENDWRAIDTGARPPAGSEAVVGFEAIGGFGAREIYAVGWDGEIWQYDGKRWQPRESPTNLILTAICCAEDGSVYACGQAGTLLRGRNDHWEIIAQDDVDEDLWSLAWFDGALYVSSATAVYTLVGGHLKEVDFGDEQPQRCFHLSAADGVLWSIAAKDIFSFDGQQWTRID | not soluble |
| MLKTNSSRDGKIKLTVDQMLGKLARWIRLMGYDVYYPAGNVSDNEIIEVSKNEGRILITKDYELYSRYPLSIYELYSNIDDQLYDFVFHFRKRTEEEFKRCPVCNGKLVKVYASPHVLNHRDLYRCEFCGKLYWKGTHYKKIYRKLKSLEKKSGAGRLEHHHHHH | not soluble |
| MLKVKKEVLEKMIKQAERDYPYETCGLLIGKSEGGIRIAYEAFETPNANPDRKHDRYEIAPKDYMRAEDYAISKGMEIVGVYHSHPDHPDRPSQFDLQRAFPDLSYIIFSVQKGKVASYRSWELKGDKFEEEEVEVFE | not soluble |
| MLLEPLKQLKQADARLNMTQGVLEGVVGEELGVLPGMDSIFSMLELERLVGFFRQATRKNHKGKPFDVIIYDGISTEETLRMIGLSSKTRLYAKYLRSLAEKTDLGRLTSPSIMRFVDESMNINSNKSPFDGMTSPAMWDTLERFLETGASAWRDPERFRSFLVMDPNNPMSVKAALRYWGCTVQAGSHVSGAFAISSSHLTSQIPKADFVPLPFASASVPFTITGLDWDKILLDQANSSIRELLSETVSHGTSLTQTVMFDTAKKLVTLFMPGFEKSEIKLYQYRGGSELLIEAGDQRRVIHLPSQIQGKVGGAKFVDRSLIVTMR | soluble |
